In patent publication US20240254229A1 (Molecular Partners, published 2024):
Blank lines part the entries; values can stand above or below the binder they belong to.

Tests used:
[1] = molecular target: T1, biotinylated extracellular domain of human CD33 (SEQ ID NO: 87), Fc and Avi tagged (human, UniProt P20138 18-259, biotinylated with BirA-GST (Avi tag)); assay: SPR (ProteOn XPR36), target on GLC chip
T1 construct: also called hCD33; human target hCD33

[2] = molecular target: T2, biotinylated extracellular domain of human CD123 (SEQ ID NO: 88), Fc and Avi tagged (human, UniProt P26951 19-303, biotinylated with BirA-GST (Avi tag)); assay: SPR (ProteOn XPR36), target on GLC chip
T2 construct: also called hCD123
T2 sequence: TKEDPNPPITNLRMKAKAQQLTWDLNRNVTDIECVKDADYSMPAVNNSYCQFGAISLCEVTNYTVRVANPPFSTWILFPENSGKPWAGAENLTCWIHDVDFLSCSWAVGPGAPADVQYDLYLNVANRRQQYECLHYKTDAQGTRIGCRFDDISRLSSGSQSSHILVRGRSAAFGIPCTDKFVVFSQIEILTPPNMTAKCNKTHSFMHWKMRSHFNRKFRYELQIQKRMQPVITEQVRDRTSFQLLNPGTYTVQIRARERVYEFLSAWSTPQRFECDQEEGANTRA

[3] = molecular target: T3, human serum albumin (human, UniProt P02768 25-609); assay: SPR (ProteOn XPR36), target on GLC chip
T3 construct: also called HSA; SA
T3 sequence (P02768 25-609 limits assumed): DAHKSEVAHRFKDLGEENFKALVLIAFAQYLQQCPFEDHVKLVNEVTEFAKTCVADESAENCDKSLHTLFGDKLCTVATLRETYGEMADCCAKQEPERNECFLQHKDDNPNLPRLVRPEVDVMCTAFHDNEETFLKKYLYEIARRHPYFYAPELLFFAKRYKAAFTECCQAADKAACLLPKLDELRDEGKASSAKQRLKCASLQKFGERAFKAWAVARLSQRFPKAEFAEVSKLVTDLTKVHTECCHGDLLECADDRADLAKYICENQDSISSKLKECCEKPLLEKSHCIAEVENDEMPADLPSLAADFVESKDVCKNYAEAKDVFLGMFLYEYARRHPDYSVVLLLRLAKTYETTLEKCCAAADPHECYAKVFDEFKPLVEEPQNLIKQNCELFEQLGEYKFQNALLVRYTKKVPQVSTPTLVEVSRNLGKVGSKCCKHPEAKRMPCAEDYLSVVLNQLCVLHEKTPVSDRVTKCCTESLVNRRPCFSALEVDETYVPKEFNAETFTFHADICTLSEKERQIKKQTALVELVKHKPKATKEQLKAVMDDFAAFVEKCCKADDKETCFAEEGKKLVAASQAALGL

[4] = molecular target: T4, extracellular domain of human CD70 (SEQ ID NO: 89), hCD70-Fc-trimer, ACRO Biosystems (human, UniProt P32970 52-193, chemically biotinylated where the biotinylated form was used); assay: SPR (ProteOn XPR36), target on GLC chip, DARPin as analyte
T4 construct: also called human CD70-Fc-trimer; Bio.CD70
T4 sequence: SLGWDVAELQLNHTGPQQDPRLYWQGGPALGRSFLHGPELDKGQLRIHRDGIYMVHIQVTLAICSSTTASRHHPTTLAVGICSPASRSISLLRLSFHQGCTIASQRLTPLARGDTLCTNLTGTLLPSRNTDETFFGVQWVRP

[5] = molecular target: T5, biotinylated extracellular domains of human CD123 (uniprot ID 26951), Fc format (human, UniProt P26951 19-305, biotinylated); assay: ribosome display selection, crude extract HTRF
T5 construct: extracellular domain
T5 sequence (looked up): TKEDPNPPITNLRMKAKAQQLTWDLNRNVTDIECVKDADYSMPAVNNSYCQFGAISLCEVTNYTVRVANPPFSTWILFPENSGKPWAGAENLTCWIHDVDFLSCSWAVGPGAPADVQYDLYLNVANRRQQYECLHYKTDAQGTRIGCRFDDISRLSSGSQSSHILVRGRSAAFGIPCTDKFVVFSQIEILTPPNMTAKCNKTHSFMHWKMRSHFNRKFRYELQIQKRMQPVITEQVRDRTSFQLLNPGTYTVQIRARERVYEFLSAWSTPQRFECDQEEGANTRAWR

[6] = molecular target: T1, biotinylated extracellular domain of …; assay: crude extract HTRF, 12 nM biotinylated hCD33
Procedure: The extract of each lysed clone was applied as a 1:900 dilution (final concentration) in PBSTB (PBS supplemented with 0.1% Tween 20® and 0.2% (w/v) BSA, pH 7.4) together with 12 nM (final concentration) biotinylated hCD33, 1:200 (final concentration) of anti-strep-D2 HTRF antibody-FRET acceptor conjugate (Cisbio) and 1:200 (final concentration) of anti-6His-Tb antibody FRET donor conjugate (Cisbio) to a well of 384 well plate and incubated for 90 minutes at RT. The HTRF was read-out on a Tecan M1000 using a 340 nm excitation wavelength and a 665±10 nm emission filter. […] An amino acid sequence of a selected ankyrin repeat domain that specifically bind to hCD33 are provided in SEQ ID NO: 15.

[7] = molecular target: T6, hCD33 (recombinant, construct not stated) (human, UniProt P20138 18-259, limits assumed); assay: switchSENSE, CD33 and CD123 on one chip; monophasic
T6 construct: also called CD33 (Ligand 1)
T6 sequence (P20138 18-259 limits assumed): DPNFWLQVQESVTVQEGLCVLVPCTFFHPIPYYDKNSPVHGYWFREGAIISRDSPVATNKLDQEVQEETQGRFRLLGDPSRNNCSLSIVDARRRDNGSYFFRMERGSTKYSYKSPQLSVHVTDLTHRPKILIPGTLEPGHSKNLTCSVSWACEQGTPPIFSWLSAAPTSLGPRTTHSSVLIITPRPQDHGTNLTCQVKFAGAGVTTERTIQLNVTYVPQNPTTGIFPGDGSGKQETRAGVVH
Procedure: (§1) The designed ankyrin repeat proteins: DARPin® protein #20, DARPin® protein #21, DARPin® protein #22, DARPin® protein #27, DARPin® protein #40 and DARPin® protein #41 were tested in a concentration of 0.16 and 64 nM (in a buffer PE140 containing 10 mM Na2HPO4/NaH2PO4, 140 mM NaCl, 0.05% Tween20, 50 μM EDTA, 50 μM EGTA) for binding against two ligands hCD33 and hCD123, which both were immobilized simultaneously to DNA nanolevers, on the surface, at a pre-defined ratio (2:1, CD33:CD123) and 10% density (100:50) on an ADP-48-1-0 chip, where 100% density 1000 receptors/μm2 (preincubated R1-B48-CD123 and G1-A48-CD33 (100 nM) diluted in cNL-48 (dark)). Briefly the following steps were performed: [0724] Conjugation. Amine coupling of the two ligands (CD33 and CD123) to the DNA nanolever (A48, B48, respectively) and purification of the conjugates using the proFIRE® solution (Dynamic Biosensors GmbH) at 25° C. [0725] Evaluation of all the combined affinity and avidity of all different proteins to both ligands attached on the surface of an ADP chip using a DRX+ instrument (dynamic BIOSENSORS). [0726] Statistical analysis (repeatability from 2 to 5 times) including regeneration of the chip surface every concentration analyzed and long dissociation times and data were fitted using a bi-exponential global fit.

[8] = molecular target: T7, hCD123 (recombinant, construct not stated) (human, UniProt P26951 19-305, limits assumed); assay: switchSENSE, hCD33 and hCD123 co-immobilised 2:1; panel headed CD123, y axis kon
T7 construct: also called CD123 (Ligand 2)
T7 sequence (looked up): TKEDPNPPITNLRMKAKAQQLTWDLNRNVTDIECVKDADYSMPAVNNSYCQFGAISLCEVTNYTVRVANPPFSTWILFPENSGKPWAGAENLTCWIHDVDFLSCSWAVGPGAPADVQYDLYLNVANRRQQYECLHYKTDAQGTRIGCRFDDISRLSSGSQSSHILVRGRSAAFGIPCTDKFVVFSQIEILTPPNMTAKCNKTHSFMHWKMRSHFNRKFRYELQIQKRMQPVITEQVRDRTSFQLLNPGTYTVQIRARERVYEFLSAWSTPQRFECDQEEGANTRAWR
Procedure: as §1

[9] = molecular target: T6, hCD33 (recombinant, construct not …); assay: switchSENSE, hCD33 and hCD123 co-immobilised 2:1; panel headed CD33, column KD1; KD2 printed N.A.
Procedure: as §1

[10] = molecular target: T7, hCD123 (recombinant, construct not …); assay: switchSENSE, CD33 and CD123 on one chip; monophasic
Procedure: as §1

[11] = molecular target: T6, hCD33 (recombinant, construct not …); assay: switchSENSE, hCD33 and hCD123 co-immobilised 2:1; panel headed CD33
Procedure: as §1

[12] = molecular target: T7, hCD123 (recombinant, construct not …); assay: switchSENSE, hCD33 and hCD123 co-immobilised 2:1; panel headed CD123, column KD1; KD2 printed N.A.
Procedure: as §1

[13] = molecular target: T4, extracellular domain of human CD70 (SEQ …); assay: SPR (ProteOn XPR36), target on GLC chip
[14] = molecular target: T2, biotinylated extracellular domain of …; assay: SPR (ProteOn XPR36), target on GLC chip, DARPin as analyte
[15] = molecular target: T8, human scCD3εγ (scCD3εγ_Avi-Bio) (human, biotin on the C-terminal Avi-tag (in vitro, BirA) where the biotinylated form was used); assay: ribosome display selection, crude extract HTRF
T8 construct: Used for all SPR and HTRF results on human CD3; also called recombinant human CD3; human CD3
T8 chain: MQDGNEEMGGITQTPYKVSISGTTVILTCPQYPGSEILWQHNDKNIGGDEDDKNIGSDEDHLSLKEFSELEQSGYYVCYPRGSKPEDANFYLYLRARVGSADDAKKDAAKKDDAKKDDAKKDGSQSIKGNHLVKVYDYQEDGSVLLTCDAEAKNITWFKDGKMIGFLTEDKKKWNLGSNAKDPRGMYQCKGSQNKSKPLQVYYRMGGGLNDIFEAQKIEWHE

T1 sequence (P20138 18-259 R69G): as the sequence (P20138 18-259 limits assumed) above, with R52G counted along it

Kd [4]: 0.18 nM
B1: DARPin® protein #33 (designed binder)
chain: DLGYKLLQAAYDGQLDEVRILLKAGADVNAKDSRGQTPLHYAASIGHLEIVEVLLKAGADVNAKDDHGWTPLHLAAWSGHLEIVEVLLKAGADVNAQDQEGTTPADLAAVQGHQDIAEVLQKAA
notes: CD70-specific ankyrin repeat domain; not shown: N-terminal His-tag
binding result [1]: no binding (tested: 100 nM (highest concentration))
binding result [2]: no binding (tested: 100 nM (highest concentration))
binding result [3]: no binding (tested: 100 nM (highest concentration))

binding result [5]: binds
B2: DARPin® protein #6 (designed binder)
chain: DLGKKLLEAARAGQDDEVRILMANGADVNALDWLGHTPLHLAAYEGHLEIVEVLLKNGADVNAIDDNNGFTPLHLAAIDGHLEIVEVLLKNGADVNAQDKFGKTAFDISIDNGNEDLAEILQKAA
notes: CD123-specific domain

binding result [6]: binds
B3: DARPin® protein #15 (designed binder)
chain: DLGDKLLLAATSGQDDEVRILLAAGADVNAKDYDGDTPLHLAADEGHLEIVEVLLKAGADVNAKDYSGSTPLHAAAAYGHLEIVEVLLKAGADVNAQDVFGYTPADLAAYVGHEDIAEVLQKAA
notes: CD33-specific domain; screened as crude extract of a His-tagged clone (vector pMPAG06)

koff [7]: 0.01 s⁻¹
binding result [8]: no binding
Kd [9]: 15 nM
B4: DARPin® protein #22 (designed binder)
chain: DLGKKLLEAARAGQDDEVRELLKAGADVNAKDKDGYTPLHLAAREGHLEIVEVLLKAGADVNAKDKDGYTPLHLAAREGHLEIVEVLLKAGADVNAQDKSGKTPADLAADAGHEDIAEVLQKAAGSPTPTPTTPTPTPTTPTPTPTGSDLGDKLLLAATSGQDDEVRILLAAGADVNAKDYDGDTPLHLAADEGHLEIVEVLLKAGADVNAKDYSGSTPLHAAAAYGHLEIVEVLLKAGADVNAQDVFGYTPADLAAYVGHEDIAEVLQKAAGSPTPTPTTPTPTPTTPTPTPTGSDLGQKLLEAAWAGQDDEVRILLAAGADVNAKNSRGWTPLHTAAQTGHLEIFEVLLKAGADVNAKNDKRVTPLHLAAALGHLEIVEVLLKAGADVNARDSWGTTPADLAAKYGHGDIAEVLQKLA
notes: also called Ni2C-αCD33-αCD3

koff [10]: 0.06 s⁻¹
binding result [11]: no binding
Kd [12]: 2.2 nM
B5: DARPin® protein #21 (designed binder)
chain: DLGKKLLEAARAGQDDEVRILMANGADVNALDWLGHTPLHLAAYEGHLEIVEVLLKNGADVNAIDDNNGFTPLHLAAIDGHLEIVEVLLKNGADVNAQDKFGKTAFDISIDNGNEDLAEILQKAAGSPTPTPTTPTPTPTTPTPTPTGSDLGKKLLEAARAGQDDEVRELLKAGADVNAKDKDGYTPLHLAAREGHLEIVEVLLKAGADVNAKDKDGYTPLHLAAREGHLEIVEVLLKAGADVNAQDKSGKTPADLAADAGHEDIAEVLQKAAGSPTPTPTTPTPTPTTPTPTPTGSDLGQKLLEAAWAGQDDEVRILLAAGADVNAKNSRGWTPLHTAAQTGHLEIFEVLLKAGADVNAKNDKRVTPLHLAAALGHLEIVEVLLKAGADVNARDSWGTTPADLAAKYGHGDIAEVLQKLA
notes: also called αCD123-Ni2C-αCD3

Kd [14]: 8.6 nM
B6: DARPin® protein #34 (designed binder)
chain: DLGKKLLEAALEGQLDEVRELLKAGADVNAKDQEGYTPLHLAAALGHLEIVEVLLKAGADVNAKDSIGRTPLHLAAYKGHLEIVEVLLKAGADVNAQDLLGETPADLAAEQGHQDIAEVLQKAA
notes: CD123-specific ankyrin repeat domain; not shown: N-terminal His-tag
binding result [1]: no binding (tested: 100 nM (highest concentration))
binding result [13]: no binding (tested: 100 nM (highest concentration))
binding result [3]: no binding (tested: 100 nM (highest concentration))

binding result [15]: binds
B7: DARPin® protein #2 (designed binder)
chain: MRGSHHHHHHDLGQKLLEAAWAGQDDEVRELLKAGADVNAKNSRGWTPLHTAAQTGHLEIFEVLLKAGADVNAKDDKGVTPLHLAAALGHLEIVEVLLKAGADVNAQDSWGTTPADLAAKYGHEDIAEVLQKAA
notes: CD3-specific ankyrin repeat domain
